Laboratory results from patent US20050038228A1.

Experiments:
[1] = biological target: rheumatoid factor in serum of rheumatism patients (human); experiment: batch adsorption with γ-sterilized adsorbent: 100 µL adsorbent with 600 µL rheumatism patient serum, 37° C., 2 h; rheumatoid factor depletion from the supernatant
[2] = biological target: anti-β1 adrenoceptor antibody in serum of patients with dilated cardiomyopathy (human); experiment: batch adsorption with γ-sterilized adsorbent and dilated cardiomyopathy patient serum; antibody left in the supernatant measured by ELISA on the β1-adrenoceptor second loop peptide
[3] = biological target: IgG in healthy human serum (human); experiment: batch adsorption as in Example 7 with γ-sterilized adsorbent and healthy human serum; IgG depletion from the supernatant
[4] = biological target: IgG in healthy human serum (human); experiment: batch adsorption after γ-ray sterilization (25 kGy): 100 µL adsorbent with 300 µL healthy human serum, 37° C., 2 h; IgG depletion from the supernatant
[5] = biological target: IgG in healthy human serum (human); experiment: batch adsorption: 100 µL adsorbent with 300 µL healthy human serum, 37° C., 2 h; IgG depletion from the supernatant against a saline control
[6] = biological target: immune complex prepared by heating a human IgG solution (10 mg/mL) at 63° C. for 15 minutes (human); experiment: batch adsorption after γ-ray sterilization (25 kGy) from healthy human serum spiked with immune complex (20 µg/mL); supernatant measured with a C1q-CIC kit
[7] = biological target: immune complex prepared by heating a human IgG solution (10 mg/mL) at 63° C. for 15 minutes (human); experiment: batch adsorption from healthy human serum spiked with immune complex (20 µg/mL); supernatant measured with a C1q-CIC kit

Binder	Adsorption ratio of rheumatoid factor (%) [1]	Adsorption ratio of an immune complex after sterilization (%) [6]	Adsorption ratio of an immune complex before sterilization (%) [7]	further results
MG56 peptide (peptide) peptide: MTTYKLVINGKTLKGETTTKAVDAETAEKAFKQYANDNGVDGVWTYDDATKTFTVTE	34.4%	–	–	–
CO4 peptide (peptide) peptide: MTTYKLVINGKTLKGETTTKAVDAETAERAFRKYANDNGVEGIWTYDPATKTFTVTEC	–	–	–	Adsorption ratio of IgG after sterilization (%) [4]: 90.2%; Adsorption ratio of IgG before sterilization (%) [5]: 97.1%
B04 peptide (peptide) peptide: MTTYKLVINGKTLKGETTTKAVDAETAERAFRKYATDNGVDGMWTYDPATKTFTVTEC	–	91.6%	92.4%	–
C24 peptide (peptide) peptide: MTTYKLVINGKTLKGETTTKAVDAETAERAFRKYANDNGVDGMWTYDPATKTFTVTEC	–	80.5%	81.5%	–

Second part, led by results:

Adsorption ratio of rheumatoid factor (%) [1]	Adsorption ratio of an immune complex after sterilization (%) [6]	Adsorption ratio of an immune complex before sterilization (%) [7]	Binder	further results
56.3%	–	–	C36 peptide (peptide) peptide: MTTYKLVINGKTLKGETTTKAVDAETAERAFRQYATDNGVEGMWTYDPATKTFTVTEC	Adsorption ratio of β1 adrenoceptor (%) [2]: 77.8%; Adsorption ratio of IgG (%) [3]: 59.7%
–	84.1%	85.2%	C15 peptide (peptide) peptide: MTTYKLVINGKTLKGETTTKAVDAETAERAFRQYANDNGVEGLWTYDPATKTFTVTEC	–
